Experiment [1] deals with Hsp90 of the yeast-purified Hsp90:Cdc37:CRaf^KD complex (human) (UniProt P08238). As to the kind of experiment: cryo-EM structure; same sample as a1; pairs inside the natively isolated Hsp90^closed:Cdc37:CRaf^KD complex, which was assembled in yeast and co-purified.
Experiment [2] has as its target Hsp90 (E. coli purified; used as Hsp90^open without nucleotide or Hsp90^closed) (human) (UniProt P08238). Put plainly: fluorescence correlation spectroscopy (FCS); ~20 nM Alexa488-labelled PP5 with varying concentrations of Hsp90^closed dimer; room temperature; hydrodynamic radius against Hsp90 concentration, one-site total binding fit; apparent KD.
Experiment [3] shares this target.
In experiment [4] the target is Hsp90 of the mammalian-purified Hsp90:Cdc37:CRaf complexes (human) (UniProt P08238).
The target of experiment [5] is Hsp90 (E. coli purified; used as Hsp90^open without nucleotide or Hsp90^closed) (human) (UniProt P08238). Put plainly: fluorescence correlation spectroscopy (FCS); ~20 nM Alexa488-labelled PP5 with varying concentrations of Hsp90^open; room temperature; hydrodynamic radius against Hsp90 concentration, one-site total binding fit; apparent KD.
The target is the same in experiment [6]. Put plainly: fluorescence correlation spectroscopy (FCS); ~20 nM Alexa488-labelled PP5 with varying concentrations of Hsp90^closed dimer; room temperature; hydrodynamic radius against Hsp90 concentration, one-site total binding fit; apparent KD. This is another data set of the same source.
The target is the same in experiment [7]. The source holds these as a separate data set.
Experiment [8] deals with Hsp90 of the mammalian-purified Hsp90:Cdc37:CRaf complexes (human) (UniProt P08238). This is another data set of the same source.

Changes are numbered by the printed parent chain.

Chain of UniProt P08238 (P08238 2-724 limits assumed): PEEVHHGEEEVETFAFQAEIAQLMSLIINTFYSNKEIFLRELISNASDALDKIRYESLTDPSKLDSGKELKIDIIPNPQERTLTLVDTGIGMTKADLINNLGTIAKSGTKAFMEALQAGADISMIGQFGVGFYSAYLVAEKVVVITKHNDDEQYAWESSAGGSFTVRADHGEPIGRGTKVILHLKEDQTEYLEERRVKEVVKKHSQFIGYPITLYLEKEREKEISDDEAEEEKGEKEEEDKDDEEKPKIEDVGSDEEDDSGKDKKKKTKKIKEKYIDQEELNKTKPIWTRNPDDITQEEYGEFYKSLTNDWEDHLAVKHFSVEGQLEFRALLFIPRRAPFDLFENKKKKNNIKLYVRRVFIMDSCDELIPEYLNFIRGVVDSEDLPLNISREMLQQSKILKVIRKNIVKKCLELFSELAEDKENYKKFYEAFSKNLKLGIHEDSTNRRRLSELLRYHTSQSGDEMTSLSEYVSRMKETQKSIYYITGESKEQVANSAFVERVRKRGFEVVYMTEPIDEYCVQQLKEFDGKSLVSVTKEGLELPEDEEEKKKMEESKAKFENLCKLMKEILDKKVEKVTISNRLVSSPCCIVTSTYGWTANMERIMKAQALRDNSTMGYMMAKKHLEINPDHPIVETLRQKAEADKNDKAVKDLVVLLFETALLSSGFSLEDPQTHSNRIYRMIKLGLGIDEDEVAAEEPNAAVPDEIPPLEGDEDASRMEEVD

“Hsp90 of the yeast-purified Hsp90:Cdc37:CRaf^KD complex (from UniProt P08238 1-724) (natural protein)” registered a stoichiometry N in experiment [1] of 2.

B1: Serine/threonine-protein phosphatase 5 (PP5), wild type (enzyme)
chain: MAMAEGERTECAEPPRDEPPADGALKRAEELKTQANDYFKAKDYENAIKFYSQAIELNPSNAIYYGNRSLAYLRTECYGYALGDATRAIELDKKYIKGYYRRAASNMALGKFRAALRDYETVVKVKPHDKDAKMKYQECNKIVKQKAFERAIAGDEHKRSVVDSLDIESMTIEDEYSGPKLEDGKVTISFMKELMQWYKDQKKLHRKCAYQILVQVKEVLSKLSTLVETTLKETEKITVCGDTHGQFYDLLNIFELNGLPSETNPYIFNGDFVDRGSFSVEVILTLFGFKLLYPDHFHLLRGNHETDNMNQIYGFEGEVKAKYTAQMYELFSEVFEWLPLAQCINGKVLIMHGGLFSEDGVTLDDIRKIERNRQPPDSGPMCDLLWSDPQPQNGRSISKRGVSCQFGPDVTKAFLEENNLDYIIRSHEVKAEGYEVAHGGRCVTVFSAPNYCDQMGNKASYIHLQGSDLRPQFHQFTAVPHPNVKPMAYANTLLQLGMM
modifications: Alexa488 (maleimide dye) in the FCS assays
As to B1, the Kd stood at 0.43 µM in experiment [2], 0.62 µM in experiment [5] and 230 µM in experiment [6]. The same molecule returned a rate of Cdc37^pS13 dephosphorylation by PP5 in Hsp90^open:Cdc37^pS13 (3 μM Cdc37^pS13 and equimolar Hsp90, 750 nM PP5, 25 °C) in experiment [3] of 0.043 min^−1. This molecule returned a rate of CRaf^pS338 dephosphorylation by PP5 in the Hsp90:Cdc37:CRaf complex (3 μM complex, 150 nM PP5, 25 °C) in experiment [4] of 0.19 min^−1.

B2: PP5^R150D (enzyme)
chain: B1 chain with R150D
modifications: Alexa488 (maleimide dye) in the FCS assays
For the molecule B2, the rate of Cdc37^pS13 dephosphorylation by PP5 in Hsp90^open:Cdc37^pS13 (3 μM Cdc37^pS13 and equimolar Hsp90, 750 nM PP5, 25 °C) in experiment [3] was found to be 0.012 min^−1. The molecule also showed a rate of CRaf^pS338 dephosphorylation by PP5 in the Hsp90:Cdc37:CRaf complex (3 μM complex, 150 nM PP5, 25 °C) in experiment [4] of 0.04 min^−1. Moreover, in experiment [6], the Kd was 3300 µM.

B3: PP5^F148K (enzyme)
chain: B1 chain with F148K
modifications: Alexa488 (maleimide dye) in the FCS assays
B3 returned a rate of Cdc37^pS13 dephosphorylation by PP5 in Hsp90^open:Cdc37^pS13 (3 μM Cdc37^pS13 and equimolar Hsp90, 750 nM PP5, 25 °C) in experiment [3] of 0.009 min^−1. Further, the rate of CRaf^pS338 dephosphorylation by PP5 in the Hsp90:Cdc37:CRaf complex (3 μM complex, 150 nM PP5, 25 °C) in experiment [4] stood at 0.05 min^−1. For the same molecule, the Kd in experiment [6] is 2000 µM.

B4: PP5^R113D (enzyme)
chain: B1 chain with R113D
modifications: Alexa488 (maleimide dye) in the FCS assays
In experiment [3], B4 yielded a rate of Cdc37^pS13 dephosphorylation by PP5 in Hsp90^open:Cdc37^pS13 (3 μM Cdc37^pS13 and equimolar Hsp90, 750 nM PP5, 25 °C) of 0.006 min^−1. The molecule further gave a rate of CRaf^pS338 dephosphorylation by PP5 in the Hsp90:Cdc37:CRaf complex (3 μM complex, 150 nM PP5, 25 °C) in experiment [4] of 0.046 min^−1. In addition, the Kd in experiment [6] was found to be 4300 µM.

B5: PP5^(αJ del) (PP5 with the last 10 residues truncated) (enzyme)
chain: MAMAEGERTECAEPPRDEPPADGALKRAEELKTQANDYFKAKDYENAIKFYSQAIELNPSNAIYYGNRSLAYLRTECYGYALGDATRAIELDKKYIKGYYRRAASNMALGKFRAALRDYETVVKVKPHDKDAKMKYQECNKIVKQKAFERAIAGDEHKRSVVDSLDIESMTIEDEYSGPKLEDGKVTISFMKELMQWYKDQKKLHRKCAYQILVQVKEVLSKLSTLVETTLKETEKITVCGDTHGQFYDLLNIFELNGLPSETNPYIFNGDFVDRGSFSVEVILTLFGFKLLYPDHFHLLRGNHETDNMNQIYGFEGEVKAKYTAQMYELFSEVFEWLPLAQCINGKVLIMHGGLFSEDGVTLDDIRKIERNRQPPDSGPMCDLLWSDPQPQNGRSISKRGVSCQFGPDVTKAFLEENNLDYIIRSHEVKAEGYEVAHGGRCVTVFSAPNYCDQMGNKASYIHLQGSDLRPQFHQFTAVPHPNVKPMAY
modifications: Alexa488 (maleimide dye) in the FCS assays
In experiment [7], B5 displayed a rate of Cdc37 dephosphorylation by PP5^(αJ del) while Cdc37 is bound to Hsp90 of 0.055 min⁻¹. The rate of CRaf^pS338 dephosphorylation by PP5^(αJ del) in the Hsp90:Cdc37:CRaf complex in experiment [8] is 0.28 min^−1. For the same molecule, the Kd in experiment [2] is 0.13 µM; in experiment [5], 0.12 µM.

For orientation: stoichiometry N means the number of molecules, sites or subunits per partner or assembly.

The values above are taken from paper PMC10110553.
